The record followed here is the DeepSol protein solubility set.

This data set is described as follows: soluble on expression in E. coli; label from the status in PepcDB or PDB records.
In the case of “AICCQVDNCGADLSKVKDYHRRHKVCEIHSKATTALVGGIMQRFCQQCSRFHVLEEFD”, the “soluble on expression in E. coli” value is given as “soluble”.
Under “MSLTPRFIDLHTHTTASDGSDSPADLVRKATEAGLAAVAVTDHDTVAGLDEAVAMGHETGIEVVRGCELGVRSEYGEIHILGLWLPEKPETLLDAMKELRRHRNERNERIVDNLRTLGMDITYEEVRALSGGVSVGRPHIALALLRHGYIRTPQEAFDRFIGPGAPAYAPKKVFSPAEGVRLLASCGATVAIAHPMLLRCPEEWLDDTVADLKVAGLDAIEAYHSEHSHKDERRCVDIADRHGLVLTGGSDYHGKAKPAISLGRGREGHHHHHH” stands “not soluble”; under “MGSDKIHHHHHHMDKPMTENPVHPAEAGPSGPADAAGKAPGLAAVESRQRMRDGTELLLRTWEPDPCMFPETVGCVLLVHGLAEHCGRYQHVAEVLCGLGLRVRAYDQRGHGASGGARMVAEHPDAYLNDLVEIHDAAVRVWKELPILLGHSMGGLVAARFATARLRPVRALVLSSPALALRLSPTMLTIHRVLLTLAPRLRVPNPIDARMLSHDAHVVARYRADPLVQTTITAGVLESFIRGMAQAQTDAPRLEAPMLMLVGGADKIVDPGGSRTFFDHAPADLREEVWFGEGYHEIFNEAEPLRSKVFAALTDWLRRHLAQPV”, “not soluble”.
Under “TLTTTPNQLTDGLEKSLRPLNKIHVPVHEIAMMMSIALRFIPILLEETDKIMKAQIARGADFENGNLIQKVKNMVPLLVPLFISAFRRANDLAMAMEARCYHGGDNRTQMKPLKYKKRD” stands “not soluble”.
The result for “MLNARINQSIKCNQVRIHNVADKITWAELTKIEQLLKIIPQWEKLIKIQTTSKIFNSTSWVASWLETFWQKNWQLNVLIAWCDDELIAIVPLYYQQNNSILPMKVLYPLGQGEAEAQEISTEYTDILINEKFQEHLLPKIQQWILNLKADQLHWHALLHNSSTRNILADYEQTKSNEATRYIVNGLNWSLENLSKNMRSRYRRGLNQLDKLNATIDWVEQSDFDQYWQLMKKLHQKRWQGKNAKGAFCSDEFNQFHAKFREKSPKNIAMSAIWVNDTPIAIHYYFSDATTLYFYQSGWNESEYSHLSPGLILHLWTIENNNKPYYDFMMGKKKDSYKAKFATLQQPMYNITLTFSPIKLLFYSVFEKIKVKYLSA” reads “not soluble”; that for “MGSDKIHHHHHHMKTLSIVWAVVGLMLIGGCDQTPQAQSTQSKSMANVVGTTSANQDDLAFTPIVPGYKFEFPRDHLAHNNFRQEWWYLTANLTTETGEQLGAQWTQFRVALKPTDLQTIAPQVTDATPKSESTWATQQLYLAHSALTSSNAHLAHEKWSRRHSEFAEVKLDPYQIRLDNWHWQSETNALFPATLTVENPDFSYQLKLNSQAPLQYQGANGYSLKSRDGQVASYYYSQPFIEISGEINRNGKMERVTGQGWLDREWSSQFLTKTQQGWDWFALRLNDGSTLMLFQLRDQSPAESAKNAPISAFYSARRMFADGTGRNINSTDNPNDIQMTPLQWQHTVNGDYPVSWQVKIPSENIDITITPLNPNSAMPLSTPYWEGPVQLSGSHTGTGYMELTGY”, “not soluble”.
“GPGSMPLMSADGSGELPPVMLHRYPVTLGLPTADPYALAIECMLRIVGAHYKKRDGGLPVTLEVPVDGRNKPAMKRHEGLTSCLQLIESATHQDAEVITSALEPEALCVRLTAEVVLIPAFVYITHSDAGILRNAIQKAVEPKVASMWQRFRGSYSRHVVQQTSFCRSYKNMGEAIENVERCLRAIEAICSINTAGNGMFILGTERPCSADALIYAAASSFFHADFASRQASGDIIAMQQRLREGCPTLLTYVERLRGLYFEDYSAFYHLRAPTCGMEGEATQKAAEETFVRGRWKVLAFTGVFSITYFLVANIDVFSAVLLHYLEDDGEEEFLEDEE”: the “soluble on expression in E. coli” value is reported as “not soluble”.
The result for “MTRRVLLLSASVLLATAGYAPEPYYNKYGGYHKALDKKHGGYEADQTGYGGHNGMSDYGNEQGAYGHYDGKYGEAGKKSGQEYYAKGDEHGHGDEAHEKGLKKNGDAYGGKKFSYFTSGSGPYGSYQKGYYGSDGYEHDDHKSKYSSHNEDNGFKKGYDGAGAGHDDKYTSYDKEDAGHKKHHDKYDIGKYGAKQGGYAKQGHEEGWKNEAQKNSYGSRENGQEYGHPYY” reads “not soluble”; that for “MSLTIEDVAKLAGVSIATVSRVINGSGYVSEKTRYKVWKAIEELGYKPEISAKLLASKGKLFNIYVFASKRILSPLQNNGILGEFYGVIIRAIEENCGRLGMNVELKMLENFSESNGADGYIFIGGDLSEKTLKEIKSRKKPFVLVDHYIPGERVDCVISDGYDGAVYATNYLISKGFKRIVHVHGPLHPYGFKMRYDGYKDAMEKAGLMPRFYECDDTEEGTRKVIDIMLNSYGTPEAIFTSNDSIAFWVIKRLKEHNIKVPDDVSVIGFDDIVDAENFDPPLTTLRVFKYEMGCLACKRLHELLTGINPHPVRILVFTQFVKRKSTKEGHHHHHH”, “not soluble”; that for “MNIGSAIREIRQRRGITIAQICEGTGLSKGFMSQVENNKTSPSISTLETISNFLNVPLPYLLLEQKDRLKIVKKEERKYSVYGKDEQRIEHVAEQGGLRLSLVEIPTGFPKENSPNAHEGEECHLVLRGKLEVQHGEDIAIVEEGDSFSWNACVPHIVRNIGEETALLLISSYAENRQRVY”, “not soluble”.
Under “MGSDKIHHHHHHMTAIQHIERLARGRSEQAVAVIKNVQQMSNIPMHEMQLALKQLLNCGRIALHFHPDRIDSRGMTVAEGLLRDGQYRSQFETHISNGQLSPELGGPRDHWENQLFGDVYKGTKSRPKYGALDLGMWQDGPAPRFGSCYLLTHASVMARSTFCYLDSYRNPKEKGTLSCFDDVLAALLTESFERHYALGKSDFKPLNVIHYLGHQLNASLLSRFERPLSNNLDHYIEAQIHGDVSLDEDIAMLVADPSFKGTDIGASLSKICDRYDIELQYHDGFSLHTAQIPSDFRGPTMPSQANRIAIEDRVDAYAIGVAARDLYHSPQHWRDRGNRAQVAHELKLLWHVLVKYGAVQ” stands “not soluble”; under “GGAFTWDTDFNISFNRNKLTKLELQKVYYDAKTADVVNDYVVRNEPGRALGGFYGYISDGVDPETGELMYRDLSGDGKISTSDRTYIGDPNPDFTYGLTNTFSWKGFNLSVFIQGSYGNDIFNASRIETEGMYDGKNQSTKVLNRWKIPGQITNVPKANFKLLNSTYFIEDGSYLRLKDVSLSYNFKGKLLQKWGITRLQPYFTATNLLTWTSYSGMDPEVNQWGNSGTVQGIDWGTYPHSRSYVFGINVEF”, “not soluble”.
The result for “MAHHHHHHMLRHLPPPRAHPSPAFCHTHARMHLLQAPPSPHPHPTRTPLQTLCVILPPAMQVELSFIFPHALKELPVSFFVPLSSQRPRTVANLFFMCSGQLPLPAELLSALHLTEAEVAYATPAAAKAAGLLPLSDSAVVRIDKASVMEIGSSTTKSIFGGFISDERVTLPAGTAARGQSIAATMSSLKAGTLLYGNLGMPNTQASRYYILLEPVTTPEQRHEFAGFAPLGMVTGGLAELKRAASQTAVQPRTLVPKKKVVVSGCRMQLDYTYLSSSTEASASVSLGGLCDGTGQDAGKQRPTEPHERVAGRVRRRDDDGDEAKQADPRRALDGDGNTTDPGAAPLHSSGFFKISARFPKAAVAASGAGPSLKRRRAEAFVVGDDGVPTLRTTAIAPGEQVGGDGTAEPFEFFKAQQDAFMNDIEGIKDAQLQRFNRKARRIMKSRRAWASSSSSGRHANSQQHSSSSGTHVTGSGALSKTGAKKTKPKRY” reads “not soluble”; that for “LGECLADLAVDALIDEAELSPKPALVDRRGNGAHADLHLGLMQASALSLWPCFKEMADAAQRHGRIDARLRGVLGQLGRDGEAAMLRTTEGVNTHRGAIWALGLLVAAAALEPRRTQAGEVAARAGRIALLDDPAAAIGDSHGERVRRRYGVGGAREEARLCFPRAVRHGLPQLWRSREGGAGEQNARLDALLAIMSVLDDTCVLHRAGRVGLAAMQDGARAVLAAGGSASLAGRRRLCELDRRLLALNASPGGAADLLAACLFLDRLPAVSGGWAGSL”, “not soluble”.
